Columns and labels:
mGluR5 = mGluR5 phosphorylation in cultured striatal neurons; assay type: cell-based; conditions: primary striatal cultures
mGluR5-SIC = assay type: cell-based, mouse
Pin1-mGluR5 binding = experiment: Co-immunoprecipitation of Pin1 and mGluR5 in HEK293T cells; assay type: cell-based; conditions: no other Homer

B1: BDNF: TrkB receptor ligand (protein, UniProt P21237 19-249, looked up)
Neurotrophic factor BDNF …: APMKEVNVHGQGNLAYPGVRTHGTLESVNGPRAGSRGLTTTSLADTFEHVIEELLDEDQKVRPNEENHKDADLYTSRVMLSSQVPLEPPLLFLLEEYKNYLDAANMSMRVRRHSDPARRGELSVCDSISEWVTAADKKTAVDMSGGTVTVLEKVPVSKGQLKQYFYETKCNPMGYTKEGCRGIDKRHWNSQCRTTQSYVRALTMDSKKRIGWRFIRIDTSCVCTLTIKRGR
For B1, the “mGluR5 phosphorylation in striatal cultures” value (mGluR5) was “increases mGluR5 phosphorylation”, the “mGluR5-SIC amplitude or duration, WT neurons” value (mGluR5-SIC; BDNF 10 ng/ml, 10 min, WT neurons, n = 14, 40-min monitoring) was “did not alter the amplitude or duration” and the “mGluR5-SIC potentiation, WT neurons pretreated with KCl” value (mGluR5-SIC; BDNF 10 ng/ml, 10 min, after KCl pretreatment, n = 6, p < 0.05) was ~ 1.5 fold. For the same molecule, the “mGluR5-SIC potentiation, Grm5AA/AA neurons” value (mGluR5-SIC; BDNF 10 ng/ml, 10 min, Grm5AA/AA n = 8, or Homer1a-expressing n = 8) was “not potentiated”, the “mGluR5-SIC potentiation, Homer1aW24A mutant or GFP expressing WT neurons” value (mGluR5-SIC; BDNF 10 ng/ml, 10 min, Homer1aW24A n = 6, GFP n = 5) was “absent” and the “mGluR5-SIC potentiation, Homer1c expressing Homer1−/− neurons” value (mGluR5-SIC; BDNF 10 ng/ml, 10 min, Homer1c viral transgene, n = 8) was “blocked BDNF potentiation”. For the same molecule, the “mGluR5-SIC potentiation, Homer1-deficient neurons” value (mGluR5-SIC; BDNF 10 ng/ml, 10 min, Homer1−/−Homer2−/−Homer3−/− (n = 14) or Homer1−/− (n = 11) neurons, charge transfer versus baseline, p < 0.001) was > 2 fold, the “mGluR5-SIC potentiation, Pin1−/− neurons” value (mGluR5-SIC; BDNF 10 ng/ml, 10 min, Pin1−/− (n = 6) or Homer1a-expressing Pin1−/− (n = 4)) was “not potentiated” and the “mGluR5-SIC potentiation, Homer1a expressing WT neurons” value (mGluR5-SIC; BDNF 10 ng/ml, 10 min, n = 6, p < 0.001) was “potentiated”. For the same molecule, the “mGluR5-SIC potentiation, Grm5R/R neurons” value (mGluR5-SIC; BDNF 10 ng/ml, 10 min, n = 7, p < 0.001, no KCl pretreatment or Homer1a expression needed) was “potentiated” and the “mGluR5-SIC potentiation, Homer1a−/− neurons pretreated with KCl” value (mGluR5-SIC; BDNF after KCl pretreatment, n = 3) was “not in Homer1a^−/− pre-treated with KCl”.

B2: Homer1c: constitutively expressed cross-linking Homer protein (protein)
chain: MGEQPIFSTRAHVFQIDPNTKKNWVPTSKHAVTVSYFYDSTRNVYRIISLDGSKAIINSTITPNMTFTKTSQKFGQWADSRANTVYGLGFSSEHHLSKFAEKFQEFKEAARLAKEKSQEKMELTSTPSQESAGGDLQSPLTPESINGTDDERTPDVTQNSEPRAEPAQNALPFSHSAGDRTQGLSHASSAISKHWEAELATLKGNNAKLTAALLESTANVKQWKQQLAAYQEEAERLHKRVTELECVSSQANAVHSHKTELSQTVQELEETLKVKEEEIERLKQEIDNARELQEQRDSLTQKLQEVEIRNKDLEGQLSELEQRLEKSQSEQDAFRSNLKTLLEILDGKIFELTELRDNLAKLLECS
modifications: left off: tag not named ('Tagged transgenes'), end not stated, state not stated
B2 was tested, and the “effect of co-expression on Pin1-mGluR5 binding” value (Pin1-mGluR5 binding) was “reduced Pin1-mGluR5 binding”.
